Target: Slack KNa channel, wildtype (Slack-B subunit), recombinantly expressed in CHO cells
Assay: cell-based or functional assay

Magi-1 (Membrane-Associated Guanylate Kinase 1), recombinantly expressed in CHO cells
membrane currents of Slack-B on co-expression with Magi-1: 2 fold
